Data as given in publication PMC3406103.

System: C/EBPβ (endogenous, HaCaT nuclear extract)
Experiment: EMSA
Settings: 10 mM Tris-HCl pH 7.5, 50 mM NaCl, 1 mM EDTA, 15% glycerol, 1 mg/ml BSA, 25 µg/ml poly(dI-dC), 11.5 mM DTT, 26 µg/ml aprotinin, 1.5 mM PMSF, 0.5 mg/ml salmon …; scale: % of pLXSN control, normalized to C/EBPβ level

How did the binding signal turn out when CCL20 promoter nt 734-748 was run?
Its binding signal is under 50.
